# Results from the DeepSol protein solubility set.
# Experiment: soluble on expression in E. coli; label from the status in PepcDB or PDB records
row,Sequence,soluble on expression in E. coli
1,MGSDKIHHHHHHMAKLETFYPIVATPKRAGYKEYLPSAVLTGYIRCFWEADDKNFPGNNLVVPDLCADIIFTIDSKTGLVTDAIFVGVSDAPFESDDESNTELFAVRFYAWSLFLFVEQDLTGSMNRVKEPEEMFAGFVSFFQERFAEMTTNMERIALLEEFLLRKLMMLGKQVHPDFLNGIDKLLQNPNQLALGAVSVRQLERLFQKHMGLAPKQTAKLIRFQKVLQALYENPSVPGAELAYLHGFTDQAHLIKQFKRYSNHTPEEMKQIFLQNVANIQ,not soluble
2,MENQPKLNSSKEVIAFLAERFPQCFSAEGEARPLKIGIFQDLVERVGGEMNLSKTQLRAALRLYTSSWRYLYGVKAGAIRVDLDGNPCGELEEQHIAHARQQLEEAKARVQAQRAAQQAKKREAAAAAGQQDEGVRRERKPRPQQPRRKEGAEQRKPRPVAAKAPREERLTPVSDVSVLTVGQALKVKAGNNAMDATVLEITKDGVRVQLTSGMSMIVRAEHLVF,not soluble
3,MMFDRETQVVDCRCGGGLGKGGGLAQRGTLSEAGRADVVAVAMSPGQRHITKPVCEITYGMRKENIQVSVLVLYSGSGIPESGMRTGSFVLSPVEVAQIEMHKLAVIHLGNIKDHVIRKTREILSQVDIPAIIVSQIPVDFEDFAEAGIKTRLVMPRDENIRTKGIVMDMVSGVTRGDSCPRDKLNLIVKYVKTTLDQLKDHKGVALEHHHHHH,soluble
4,GHHHHHHAIAENLYFQSETSETDSTGNTQTCETRQTRSNSWTAWGIHAISTITDGAKQLYTKALGLDELEEKKLEDEEGVTHVEVDEKTKRDLWNQLSTLVGADVINMRLSLPVWLFEPTTALQRMCETLQFHQLLDMAATCEEPVERDALVAAFTVSAFAHTERVYKPFNPVLGETFEWTSRDGTTRVLCEQVSHHPPVSVSYTEGPGWVAQEVFSCNAYFLGNSVEIRNTGSRYVYLTSFDERYEWTLPVSAAQNLFVGGSFIDHYGELILRSSPRGSVTSLTFTKCGWFGRGRYAVNGDIVDADGYRVMELSGEWNRGLVGFRLDKSSGERVDAKSLWYAGEHKPAVKRDKYNFTNFTYELLEVPDNAESIIPPTDSRFRPDRRALEGNNLSLANLEKVRVENIQRERENQRQKTGTTYVPAWFYQDDNNEWHFGGKYWKETRNMSEDQKEQMKLW,not soluble
5,MGSDKIHHHHHHMSNLSLDFSHNEFQPLAARMRPATLAQYIGQQHLLGAGKPLPRAIEAGQLHSMILWGPPGTGKTTLAELIGHYGQADVERISAVTSGIKEIREAIERARQNRNAGRRTILFVDEVHRFNKSQQDAFLPHIEDGTITFIGATTENPSFELNSALLSRARVYLLKALMAEDIEQVLLQAMSDSERGYGGLNIVLPAETGRMLAELVNGDARRALNSLEMMADMAEIDAQGMRILTPALLNEIAGERSARFDNKGDRYYDLISALHKSVRGSAPDAALYWYARIITAGGDPLYVARRLLAIASEDVGNADPRAMQVAISAWDCFTRVGPAEGERAIAQAIVYLACAPKSNAVYSAFKAAMQDAREKPDYDVPEHLCNAPTRLMKEMGLGAEYRYAHNEPNAYAAGESYFPPEMADTHYYAPTSRGLEGKIGEKLAWLATQDQNSPTKRYR,not soluble
6,MGHHHHHHSHMEAPGPAQAAAAESNSREVTEDAADWAPALCPSPEARSPEAPAYRLQDCDALVTMGTGTFGRVHLVKEKTAKHFFALKVMSIPDVIRRKQEQHVHNEKSVLKEVSHPFLIRLFWTWHEERFLYMLMEYVPGGELFSYLRNRGHFSSTTGLFYSAEIICAIEYLHSKEIVYRDLKPENILLDRDGHIKLTDFGFAKKLVDRTWTLCGTPEYLAPEVIQSKGHGRAVDWWALGILIFEMLSGFPPFFDDNPFGIYQKILAGKLYFPRHLDFHVKTGRMM,not soluble
7,MGSDKIHHHHHHMDNLQFTHAIARIRVLETRLLDRSKIERMIDSSSAEEALKILGETEYLNYMSNVRSPEDYEILLSEELKRLYTLLYSISPERSIIDIMALRYDYHNLKVMLKGKYLEKDLTYLLIPVGTISNDKLKQIFATEFYKELTPLMREALEKAESEYEGDKDPQKIDLILDSYAYKEILSKSEEVNEKFINDYIKMSIDLNNIRALLRAKAQNKHRKFFEAIILDGGTIDKKTLISYESETSDSIANKLSYTPYEKIIRLGLEEYSKTNNISYFEKLSENYIMDFIKKAKQVSFGVEPLIGYIIAKETEIKIIRIIMVGKLNSIAPNIIRERLRDAYV,not soluble
8,MSLATVLVTGATGFIGSHVVEALAPRHDVVGLASSVYPSPRDAVRHVRMTLPHPDLEELVATLRPDVVVHCAGVASVGLSMHSPGVDFQSGPPVVFQLFDAIRKAGLASKVVLLSSAAVYGNPQSLPVGEDAPRAPISPYGWHKGMCEDIAQEFHGTYGIRSAVLRIFSCYGAGLRKQLLWDAAHKLLEGAFVFDGTGDETRDFIHVRDVAAFVTRLVEGWPDGGCVVCNVASGEATRIADLLALLPEAFGLSGVVPVFTGRVRGGDPHHWRADISRARQMGLAPAVSLEEGVREYATWFFAVTGGEGHHHHHH,soluble
9,MSLDSKRYTFLLGPGQSCRTATDNFIALYDKRNSLEIKDIENAFNVEALSKEFFGKYKAQYEAFVNYMVDPTNGMRQHFIDTGFDHTGMAADKIRDREEKPIRDYVKKLLGRIVFLHFLQKKGWLGVPASKEWGEGDRDFMLNIFKNANERQKENFLDDILEDLFTEGLDRNRSDQGDLYDTKVEGFRNCRIPYLNGGLFERDILDKKPSHFPASYFNGLLTMLSQYNFTIDENDPNDAEVGVDPEMLGRIFENLLEDNKDKGAFYTPKEIVQYMCRESLIAYLQTDMREEDKECIRQFVTTHDASQLGELKEYIDQKLYDVKICDPAIGSGAFPMGLLRELFFCRSAIEPNIVENAANIKRHIIQNNIYGVDIERGAVDIARLRFWLSLIVDEKSPEALPNLDFKIMQGNSLLEQYKGVDLSTEGHHHHHH,not soluble
10,MAHHHHHHMIGLKSMAGVRDVVRGGSWPARLLDMFTSRAAQESFEFEAVVTDACAAANVPVPSEADLPHARWWKKLCRACQDKAGTTKHGSQLLRSRLTNALTQRLAVEEVYRLNGGEIAKEPAVENPIVIMGLPRSNGHMAAHVLARSGLFLTPRQCDTLSPSLLLDVERRDAFRKKFRGFSYLHPDFLCVRVPQADQVDDDLTLHLMTPQSYAWGLLHGLDEYLLECLEEDQLPVYSEVRRVMELLQWYRKCGHFSEPVTREFNPIDNAMELQAYGTKNVLLRPQWLLYSPFAILSPDAVNTAFPKMKAIWVHRALSQCLPSLCSALCLHNTLYTGKPPSDSQLASMGEKVLGIFGSGTAYAIEYYGKFDQRRMAHWSNRDVKRHATRVATKTLDYFSVELDRYRRMQMISGQTEYVSVSRPLHDAQMPYFCLHDGIIGDVFQDYIYQFAEFAFEKKFGITVKEYTPLAAPADAMAMRGIAHGSSEPRSAPALGAGQPMVGHFQQERRGFR,not soluble
11,MGSDKIHHHHHHMDGSLNGETWRFIVRNIRIGVVEDDPASCQLVLDYLNRYQSETGEQFTVSVFDDGARIVEKYAPVYDILLLDIEMKEIDGMAAARRIRERDDNVVIIFITAAPQYAISGYEVRALSYLLKPLPWFAFSQELKKSIDMVRRNGDDSMLIETGKGQMRMNLTDILYLESIRHTIVIHTLDGKYSINGTLKDMEAKLADRHFFRSNSCYLVNLKHVTGVADQDCIMSDDERLRVSRPRKKAFLAALADYMGGGR,not soluble
12,VNSHCSHTFITDNRSPRARRGHAMSTLHKVKAYFGMAPMEDYDDEYYDDRAPSRGYARPRFDDDYGRYDGRDYDDARSDSRGDLRGEPADYPPPGYRGGYADEPRFRPREFDRAEMTRPRFGSWLRNSTRGALAMDPRRMAMMFEDGHPLSKITTLRPKDYSEARTIGERFRDGSPVIMDLVSMDNADAKRLVDFAAGLAFALRGSFDKVATKVFLLSPADVDVSPEERRRIAETGFYAYQ,not soluble
13,AELPPEFAAQLRKIGDKVYCTWSAPDM,soluble
14,MDKVLNREESLQLMDLLGLERSAWGNIPLMRKAYLKKCKEFHPDKGGDEEKMKKMNTLYKKMEDGVKYAHQPDFGGFWDATEVFASSLNPGVDAIYCKQWPECVKKMSTNCICLLCLLRMKHENRKLYRKDPLVWVDCYCFDCFRMWFGLDLCEGTLLLWCDIIGQTTYRDLKL,soluble
